# Experimental data taken from the supplement of paper PMC9732359.
# ± gives the uncertainty stated by the source.
# Experiment: protein stability index of a GFP-peptide fusion (yeast GPS) (PSI 1-4); higher = more stable; sorted into four equal gates, so the index is relative within each strain
# In short: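 Sequencing reads from sorted gates were used to score each peptide. The library consisted of tiled 17-residue yeast protein peptides fused downstream of GFP on a Cherry-expressing plasmid, pooled and carried in yeast. Mid-log cultures in leucine-free medium were split into four equal gates by GFP/Cherry ratio, and each gate's plasmids were PCR-amplified and Illumina-sequenced. The protein stability index adds up, over all gates, the read frequency multiplied by the gate number.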
Sequence,protein stability index (doa10∆),protein stability index (pdr5∆),protein stability index (san1∆),protein stability index (ubr1∆)
FYAAVQKNYADPEKDSI [SIN4],2.11 ± 0.083,2.58 ± 0.074,2.01 ± 0.093,1.59 ± 0.046
CDDESGDNEYITLRTSG [MCD1],3.29 ± 0.16,3.29 ± 0.099,3.04 ± 0.072,3.47 ± 0.061
DRVIFRVPIRSEYKVAF [PRP8],2.93 ± 0.069,2.71 ± 0.061,2.55 ± 0.077,2.42 ± 0.034
LAPARVRRRFARGMTSK [RPS15],2.99 ± 0.1,3.17 ± 0.094,3.11 ± 0.096,3.03 ± 0.082
RSQDQENPAFLPGTNNN [SEC65],2.79 ± 0.082,2.75 ± 0.079,2.19 ± 0.063,2.8 ± 0.064
EITSVLSNLHESNKRYR [SNF12],3.1 ± 0.085,3.05 ± 0.071,2.94 ± 0.054,3.08 ± 0.052
DAAEEEKEEEAKEESDD [RPP2B],2.88 ± 0.3,3.22 ± 0.14,3.09 ± 0.3,3.41 ± 0.078
VMRNEIRITSLQGDLTF [SIR4],2.8 ± 0.073,2.35 ± 0.062,2.65 ± 0.081,2.68 ± 0.063
DAAAEEEKEEEAAEESD [RPP1B],3.19 ± 0.13,3.25 ± 0.13,3.04 ± 0.1,3.29 ± 0.073
RCFENLQNKSFKSVLPI [UBP6],2.35 ± 0.076,1.98 ± 0.09,2.05 ± 0.12,2.45 ± 0.057
KHWQERVKVHFDQAGKK [RPL13A],2.31 ± 0.046,2.33 ± 0.047,2.28 ± 0.064,2.35 ± 0.036
LYQTYHVLVGDLIKFSA [FAS1],2.2 ± 0.05,2.43 ± 0.052,2.39 ± 0.044,2.31 ± 0.035
NMLPQRQSSVGSLNATN [SNF2],2.8 ± 0.082,3.3 ± 0.073,2.78 ± 0.052,3.08 ± 0.046
SWEEGTRQSSRNFDTHE [MCD1],3.26 ± 0.12,3.59 ± 0.13,3.31 ± 0.1,3.38 ± 0.15
IRPTELRLPFSAAMSID [PRP8],1.93 ± 0.049,1.98 ± 0.037,1.78 ± 0.057,2.24 ± 0.037
ALDTNGTSATTETLTSK [SIR4],2.22 ± 0.076,2.19 ± 0.066,2.9 ± 0.065,1.93 ± 0.045
GFSFGSQLGGNKTVNEA [YJL041W/NSP1],3.18 ± 0.072,3.23 ± 0.074,3.32 ± 0.048,3.22 ± 0.048
PMASSSSFGSESLTFNE [SWI1],3.15 ± 0.043,3.16 ± 0.041,3.14 ± 0.035,3.099 ± 0.029
SLDTSASTINGASIIQV [YML103C/NUP188],1.19 ± 0.081,1.44 ± 0.086,1.29 ± 0.12,1.14 ± 0.093
HNKLIQFGNACISLSGV [SSN2],2.45 ± 0.11,2.84 ± 0.14,2.73 ± 0.075,2.67 ± 0.13
SLQDSIIKQENFNSVND [SSN2],2.4 ± 0.11,1.83 ± 0.073,2.48 ± 0.078,2.73 ± 0.098
CPYCYKKRREYFPEGYN [SIR2],2.43 ± 0.11,2.41 ± 0.16,2.61 ± 0.2,2.75 ± 0.069
DESSGTSRIDEEKPGLI [SMC4],2.89 ± 0.058,3.12 ± 0.047,2.94 ± 0.05,3.08 ± 0.065
MSREGFQIPTNLDAAAA [RPC10],1.28 ± 0.1,1.08 ± 0.082,1.35 ± 0.16,1.16 ± 0.2
AASTPTTTATPHANPIT [PGD1],2.91 ± 0.044,2.85 ± 0.035,2.92 ± 0.038,2.916 ± 0.026
DKRIVISIDSWPTTHKY [DIS3],1.92 ± 0.065,1.52 ± 0.11,1.99 ± 0.16,2.06 ± 0.087

Sequence,protein stability index (doa10∆),protein stability index (pdr5∆),protein stability index (san1∆),protein stability index (ubr1∆)
NEIEGKNEETPQNEKPP [RPC25],2.76 ± 0.21,3.14 ± 0.15,2.22 ± 0.11,3.3 ± 0.078
ITLVEPEILRFKVYEPL [RPS16A],,3.25 ± 0.21,2.54 ± 0.22,2.75 ± 0.074
GQSAGKLAAIVEIIDQK [RPL14A],3.28 ± 0.098,3.29 ± 0.11,2.82 ± 0.11,3.41 ± 0.066
KLHFKDTKPFLNKDSTN [NUT1],2.51 ± 0.098,2.23 ± 0.073,1.99 ± 0.071,2.6 ± 0.041
CIIFMDEVDAIGGRRFS [RPT4],2.38 ± 0.089,2.13 ± 0.075,2.88 ± 0.1,2.43 ± 0.099
TEKLSPLASEESLTNSN [YGL100W/SEH1],3.36 ± 0.13,3.25 ± 0.14,3.12 ± 0.099,3.32 ± 0.075
EPLAFYLEESFTNLGII [RGR1],1.67 ± 0.063,2.18 ± 0.053,2.35 ± 0.071,2.57 ± 0.045
YQNQFVEFCRNINSTDK [YML103C/NUP188],3.04 ± 0.11,2.76 ± 0.088,2.6 ± 0.12,2.92 ± 0.049
MPPKKSWRNITNLSGGE [SMC4],2.69 ± 0.12,2.85 ± 0.14,2.64 ± 0.12,2.96 ± 0.1
VTKEYFQDVYDLTGSEP [FAS1],2.53 ± 0.23,2.82 ± 0.078,1.43 ± 0.18,2.68 ± 0.092
YDGDTVTFSPTGRLFQV [PRE5],2.96 ± 0.089,2.98 ± 0.12,2.94 ± 0.14,3.08 ± 0.061
VFERFKTKILEVAIRDV [IRR1],1.77 ± 0.081,1.75 ± 0.09,1.43 ± 0.14,1.67 ± 0.072
EYIELEYRDLYTNSVEL [YMR129W/POM152],3.16 ± 0.11,3.28 ± 0.096,3.27 ± 0.085,
ATIRETYEIICDQTKSV [RRP43],2.87 ± 0.06,3 ± 0.065,2.8 ± 0.063,2.98 ± 0.045
MSLSVAEKSYLYDSLAS [RRP42],,1.64 ± 0.18,,
DDDDYGDEEDPNEEAAF [RPC31],,3.38 ± 0.28,,
LVIGIFKRDLLREKEDK [YJL039C/NUP192],2.95 ± 0.098,2.28 ± 0.11,2.86 ± 0.069,2.34 ± 0.1
EDYAIVTKGGTVENPLR [PRP28],3.47 ± 0.16,2.98 ± 0.099,3.39 ± 0.055,3.44 ± 0.078
LLVIGGNQRKILQYSRT [YJR042W/NUP85],1.86 ± 0.091,2.27 ± 0.096,1.46 ± 0.14,1.4 ± 0.072
DDDDYNAEKYFNNGDDD [RPC31],3.01 ± 0.12,3.13 ± 0.16,3.06 ± 0.082,3.19 ± 0.07
TTTKIIDSTDHIRKASS [LRP1],2.19 ± 0.048,2.07 ± 0.039,1.64 ± 0.066,2.32 ± 0.038
SIDFRTYRCSIKNLPAD [SRB2],2.32 ± 0.074,2.56 ± 0.079,2.19 ± 0.07,2.27 ± 0.067
REGSSARTIKATLPYIK [RPB2],2.42 ± 0.067,3.17 ± 0.077,2.85 ± 0.061,2.69 ± 0.059
LPQCIIPSSYIKRTDEG [ARP7],2.77 ± 0.1,2.59 ± 0.068,2.13 ± 0.099,2.49 ± 0.065
LQKALTVKTNDELMVIY [RPN8],2.33 ± 0.11,1.89 ± 0.067,1.84 ± 0.13,2.65 ± 0.061
ILARNDEEMAVLTRMDE [SNF2],3.04 ± 0.071,2.87 ± 0.079,2.37 ± 0.084,3.15 ± 0.047

Sequence,protein stability index (doa10∆),protein stability index (pdr5∆),protein stability index (san1∆),protein stability index (ubr1∆)
LAEEVVDNIVNKYQYSL [SRP68],3.09 ± 0.069,2.98 ± 0.069,2.82 ± 0.056,2.92 ± 0.046
DQAELPNNASSHISASA [SNF2],1.79 ± 0.085,2.35 ± 0.068,2.1 ± 0.13,2.35 ± 0.063
VISIVGGHSLEEISFSL [PRP28],2.82 ± 0.13,2.73 ± 0.13,3.19 ± 0.091,3.18 ± 0.13
QWGKYQTFGVDILAKLF [SWI1],2.25 ± 0.079,2.54 ± 0.063,2.43 ± 0.062,2.27 ± 0.053
RESLIMLLEEQLEYKRG [MED7],2.51 ± 0.08,2.77 ± 0.071,2.42 ± 0.091,2.75 ± 0.057
RELLKSQVEDFTRIFLP [SIR3],3.2 ± 0.053,3.1 ± 0.059,3.13 ± 0.053,3.33 ± 0.045
NVKNYSTTQEILEFITA [RPC34],1.28 ± 0.24,1.45 ± 0.088,1.18 ± 0.18,1.25 ± 0.15
RFMKGRRSKQLINLAKT [RPC82],2.56 ± 0.1,2.78 ± 0.11,2.72 ± 0.074,2.62 ± 0.12
PVIDYELKEITSLPDWC [BRR2],2.8 ± 0.099,2.78 ± 0.086,3.1 ± 0.086,3.05 ± 0.048
GGSGAATFSVSQASSDL [CSL4],3.4 ± 0.08,3.31 ± 0.074,3.43 ± 0.061,3.36 ± 0.06
SLLERHIPRLIPKQLLD [YJL039C/NUP192],2.11 ± 0.096,1.38 ± 0.071,1.23 ± 0.095,1.45 ± 0.076
REKNSLESGKETALEFL [SMC4],3.47 ± 0.17,3.17 ± 0.11,3.07 ± 0.086,3.63 ± 0.093
ENEVENINATNTSVLMK [YCS4],3.3 ± 0.16,3.02 ± 0.12,3.09 ± 0.091,3.36 ± 0.087
EVESSDTIDNVKSKIQD [RPS31],3.11 ± 0.21,2.78 ± 0.17,3.12 ± 0.1,
IMELPGVYSDDELLSQL [SRP68],2.99 ± 0.065,3.13 ± 0.056,3.22 ± 0.045,3.05 ± 0.07
LWINYIKELLNITKNLK [POP4],1.34 ± 0.071,1.56 ± 0.062,1.62 ± 0.11,1.78 ± 0.054
NTFKVLSKFFFFIFVFN [COB],1.66 ± 0.078,1.41 ± 0.1,1.32 ± 0.2,1.29 ± 0.077
ANVPSTATTGKRKPAKS [RPN4],2.64 ± 0.073,2.88 ± 0.082,2.64 ± 0.05,2.8 ± 0.05
IEDEDEPFNAGIKYHAT [SMC1],3.04 ± 0.083,2.82 ± 0.1,2.9 ± 0.062,2.89 ± 0.05
LDFQTNKRLCDEIATIQ [RPS17A],2.53 ± 0.091,2.98 ± 0.071,2.96 ± 0.057,3.18 ± 0.072
VRDTSPHGISVFLSNLV [BRR2],1.35 ± 0.1,1.54 ± 0.077,2.55 ± 0.078,2.34 ± 0.049
ESLKNLNESRSQHKKIL [SMC3],2.78 ± 0.13,3.05 ± 0.098,2.85 ± 0.1,3.04 ± 0.096
VKAILMQRHVKVDGKVR [RPS4A],3.13 ± 0.15,3.09 ± 0.11,3.55 ± 0.2,2.9 ± 0.086
GSMTKTWYVGNSRGKFD [SSN2],3.74 ± 0.26,,3.08 ± 0.24,
EFNGFSLYQVDPSGSYF [PRE8],2.19 ± 0.057,2.05 ± 0.08,2.1 ± 0.15,2.43 ± 0.077
MLSILEIFKKGYIKNNK [POP6],2.63 ± 0.11,2.84 ± 0.091,3 ± 0.097,3.08 ± 0.1
